The values that follow come from article PMC7986808.

The data set addresses T1, RH2, His-TF-RH2 (Medicago truncatula, UniProt A0A072TSA4 1-207).
T1 sequence: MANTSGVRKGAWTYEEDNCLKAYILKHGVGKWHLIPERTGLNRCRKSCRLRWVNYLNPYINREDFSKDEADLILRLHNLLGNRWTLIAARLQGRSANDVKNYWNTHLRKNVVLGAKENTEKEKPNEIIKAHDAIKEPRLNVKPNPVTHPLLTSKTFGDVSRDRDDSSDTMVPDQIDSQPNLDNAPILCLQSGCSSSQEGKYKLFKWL
As to the kind of experiment: EMSA. (Mobility shift assays separate free from complexed probe on a gel.)

B1: MtCHS probe (dsDNA)
DNA 1: TCAGACTCACATTAAAACTACAGTCTGTTGAGTTGTGCTATTATATTAAGAGAGACAAT
DNA 2: ATTGTCTCTCTTAATATAATAGCACAACTCAACAGACTGTAGTTTTAATGTGAGTCTGA
Regarding B1, the binding result is listed as “binds”.

B2: MtANS probe (dsDNA)
DNA 1: CTATATATAAGAAGCTAGCTGCATACAACCATTTATTCACGTTTTGTGCTGTGCAATCA
DNA 2: TGATTGCACAGCACAAAACGTGAATAAATGGTTGTATGCAGCTAGCTTCTTATATATAG
On to B2, for which the binding result is given as “binds”.
